The target of the assay is human Hsp60 wild type (human). As to the kind of experiment: SEC; Superdex 200 Increase 10/300 GL, 50 mM Tris-HCl (pH 7.8 at 25 °C), 2 mM DTT, 2 mM EDTA, 0.5 mg sample, 0.75 mL/min; size from calibration with molecular weight standards; before and after agitation.

As to human Hsp60 wild type (natural protein), the stoichiometry N was 14.

(Values after PMC6982183.)
